Source: the nanobody polyreactivity screen of Harvey et al. (2022)

Experiment: yeast display, Sf9 membrane polyspecificity reagent, FACS + sequencing; frameworks hold sequencing errors
Outline: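 In a synthetic yeast display library (Saccharomyces cerevisiae BJ5465), nanobody expression was induced with galactose for 36–48 hours. FACS gates were set low and high (top ~1%) using anti-HA fluorescence for expression and streptavidin fluorescence for binding of the Sf9 membrane reagent. Each polyreactivity label is drawn from the gate of origin.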

Sequence | polyreactivity (PSR sort gate)
QVQLVESGGGLFQAGGSLRLSCAASGSTFRFNAMGWYRQAPGKERELVAAISRSGGTTYYADSVKGRFTISRDNAKNTVYLQMNSLKPEDTAVYYCNAQWWRYWPSQVIFDYWGQGTQVTVSS | high polyreactivity
QVQLVESGGGLVQAGGSLRLSCAASGFTFRVYAMGWYRQAPGKERELVAAITNSGGNTYYADSVKGRFTISRDNAKNTVYLQMNSLKPEDTAVYYCNRRYRYRFGYWGQGTQVTVSS | high polyreactivity
QVQLVESGGGLVQAGGSLRLSCAASGSIFWYNTMGWYRQAPGKERELVASISWDGGTYYADSVKGRFTISRDNAKNTVYLQMNSLKPEVTAVYYCNVAWYWGYDYWGQGTQVTVSS | low polyreactivity
QVHLVESGGGLVQAGGSLRLSCAASGSIFGDNTMGWYRQAPGKERELVAAISQSSGTSTYYADSVKGRFTISRDNAKNTVYFQMNSLKPEDTAVYYCAKDPHGSDFGYWGQVTQVTVSS | low polyreactivity
QVQLVESGGGLVQAGGSLRLSCAASGSIFRSYAMGWYRQAPGKERELVAAISRRGGSTYYADSVKGRFTISRDNAKNTVYLQMNSLKPEDTAVYYCAADRTGPYDYWGQGTQVTVSS | high polyreactivity
QVQLVESGGGLVQAGGSLRLSCAASGSIRHNTIGWYRQAPGKESEFVASISKRGGSTYYADSVKGRFTISRDNAKNTVYLQMNSLKPEDTAVYYCNAGAVTFVGRDYWGQGTQVTVSS | high polyreactivity
QVQLVESGGGLVQAGGSLRLSCAASGRTFYKNAMGWYRQAPGKERELVAAISYGGGSTYYADSVKGRFTISRDNAKNTVYLQMISLKPEDTAVYYCATQLPFRKPWHDYWGQGTQVTVSS | high polyreactivity
QVQLVESGGGLFQAGGSLRLSCAASGLTFVDNSMGWYRQAPGKEREFVAAITKRGGRTYYADSVKGRFTISRDNAKNTVYLQMTSLKPEDTAVYYCARESGNDSSRRLDYWGQGTQVTVSS | low polyreactivity
QVQLVESGGGLVQAGGSLRLSCAASGSISVRNVMGWYRQAPGKERELVATIRRTGGSTSYADSVKGRFTISRDNAKNTVYVQMNSLKPEDTAVYYCAAVGYTTYRRYDYWGQGTQVTVSS | low polyreactivity
QVQLVESGGGLVQPGGSLRLSCAASGSIFRYYAMGWYRQAPGKERELVATIRSGGSTTYADSVKGRFTISRDNAKNTVYLQMNSLKPEDTAVYYCAATYGWRFTTFPSGYASDYYWGQGTQVTVSS | high polyreactivity
QVQLVESGGGLVQAGGSLRLSCAASGIIFQTYAMGWYRQAPGKERELVAAISRTGGSTYYADSVKGRFTISRDNAKITVYVQMHSLKPEDTAVYSCAAPRFAAPLRIGYVWGQVTQVTVSS | high polyreactivity
QVQLVESGGGLVQAGGSLRLSCAASGRNFYHYAMGWYRQAPGKEREFVAAISVSGGRTYYADSVKGRFTISRDNAKNTVYLQMNSLKPEDTAVYYCAAEPEWPYGRFDYWGQGTQVTVSS | high polyreactivity
QVQLVESGGGLVQAGGSLRLSCAASGNIFGKYAMGWYRQAPGKERELVAAISSGGRTNYADSVKGRFTISRDNAKNTVYLQMNSLKPEDTAVYYCAKRYFRTKGYYYWGQGTQVTVSS | high polyreactivity
QVQLVESGGGLVQAGGSLRLSCAASGRTFYLYAMGWYRQAPGKERELVAAITRRGGSTYYADSVKGRFTISRDNAKNTVYLQMNSLKPEDTAVYYCAADRPGTGYSDYDYWGQGTQVTVSS | high polyreactivity
QVQLVESGGGLVQAGGSLRLSCAASGRTVGGNAMGWYRQAPGKERELVAAINRSGGTTYYADSVKGRFTISRDNAKNTVYLQMNSLKPEDTAVYYCAARRTVSATRMGYWGQGTQVTVSS | high polyreactivity
QVQLVESGGGLVQAGGSLRLSCAASGSNFAAYTMGWYRQAPGKERELVAAISVSTVSTYYADSVKGRFTISRDNAKNTVYLQMYSLTPEDTAVYYCIADATDSYPEKYEHDSWGQGTQVTVSS | low polyreactivity
QVQLVESGGGLVQAGGSLRLSCAASGSTFPIYAMGWYRQAPGKERELVAAITHRDGSTYYADSVKGRFTISRDNAKNTVYLQMNSLKPEDTAVYYCAAETYVVWFTFDYWGQGTQVTVSS | high polyreactivity
QVQLVDSGGGLVQAGGSLRLSCAASGLTFIRYAMGWYRQAPGKERELVAAITRGGTRTYYADSVKGRFTISRDNAKNTVYLQMNSLKPEDTAVYYCAALSRYGRFDYWGQGTQVTVSS | high polyreactivity
QVQLVESGGGLVQAGGSLRLSCAASGRILPFNAMGWYRPAPGKERELVAAIRWRGSSTYYADSVKGRFTISRDNAKNTVYLQMNSLKPEDTAVYYCAAPSSVRGKVISADYGYWGQGTQVTVSS | high polyreactivity
QVHLVDSGGGLVQAGGSLRLSCAASGSTIKTYTKGWYRQAPGKERELVAGITSGVSTSYADSVKGRFTISRDNAKNTVYLQMNSLKPEDTAVYYCNADAYLVIYFYTVRDYGYDYWGQGTQVTVSS | low polyreactivity
QLQHVESGGGLVQAGGSLRLSCADSGFILYLNAMGWYRQAPGKERELVATITNRGGSTYYADTVKGRFTISRDNAKNTVYLQMNSLKPEDTAVYYCAARTRERYSKPYFYRRFGYWGQGTQVTVSS | low polyreactivity
QVQLVESGGGLVQAGGSLRLSCAASGSTFQTNAMGWYRQAPGKERELVAAINSGGGTNYADSVKGRFTISRDNAKNTVYLQMNSLKPEDTAVYYCATDVLPRKYVSDYPSGAYDYWGQGTQVTVSS | low polyreactivity

Sequence | polyreactivity (PSR sort gate)
QVQLVESGGGLVQAGGSLRFSCAASGRIFSIYAMGWYRQAPGKERELVAAISKRGGSTSYADSVKGRFTISRDNAKNTVYLQMNSLKPEDTAVYYCNARGWIPARGWDDYYWGQGTQVTVSS | high polyreactivity
QVQLVESGGGLVQAGGSLRLSCAASGLIFKRYAMGWYRQAPGKERELVAAISSGTRTYYADSVKGRFTISRDNAKNTVYLQMNSLKPEDTAVYYCAARLDYWGQGTQVTVSS | high polyreactivity
QDQLVESGGGLRQAGGSLRLSCAASGPTFFVYAMGWYTQAPGKERELVAAISWNGGSTFYADSVKGRFTISRDNAKNTVYIQMNSLNPEDTAVYYCAAVESRGWGGYGYWGQGTQVTVSS | high polyreactivity
QVQLVESGGGLVQAGGSLRLSCAASGSIFQFNGMGWYRQAPGKERELVASINWSGGSTNYADSVMGRFTISRDNAKNTVYLQMNSLKAEDTAVYYCAVGHRIYRSRYNYWGQGTQVTVSS | low polyreactivity
QVQLVESGGGLVQAGGSLRLSCAASGIIFSLKTMGGYRQAPGKERELVAAISSSGGSTYYADSVKGRFTISRDNAKNCVYVQMNSLKPEDTAVYYCARRYAPNTSLTFYYWGQGTQVTVSS | low polyreactivity
QVQLVESGGGLVQAGGSLRLSCAASGSIFGPYAMGWYRQAPGKERELVATISSGGNTNYADSVKGRFTISRDNAKNTVYLQMNSLKPEDTAVYYCAADYTWSVYWWVDYWGQGTQVTVSS | low polyreactivity
QVQLVESGGGLVQAGGSLRLSCAASGRIFNNYAMGWYRQAPGKERELVASITSGGSTNYADSVKGRFTISRDNAKNTVYLHMNSLKPEDTAVYYCNAPRGNRYHTGGYWGQGTQVTVSS | low polyreactivity
QVQLVESGGGLVQAGGSLRLSCDASGSIFPYNAMGWFRQAPGKEWELVAAISKRGGSTYYADSVKGRFTISRDNAKNTVYLQMNSLKPEDSAVYYCAARYPPYRSWYSYDSWGQGTQVTVSS | low polyreactivity
QVQLVESCGGLVQAGGSLRLSCAASGRIFRDYAMGWYRQAPGKERELVATITRSGGRTYYADSVKGRFTISRDNAKNTVFLQMNSLKPEDTSVYYCAATYWTYPYHYQYKYDYWGQGTQVTVSS | high polyreactivity
QVQLVDSGGGLVQAGGSLRLSCAASGRTFNLYAMGWYRQAPGKERELVATIDWTGGSTYYADSVKGRFTISRDNAKNTVYLQMNSLKPEDTAVYYCNADRFADYDYWGQGTQVTVSS | low polyreactivity
QVQLHGSGGGLVQAGCSLRVSCAASGYIFQNVPMGWTRQAPGKERELVAGIDNGTSTNYADSVNGRFTISRDNAKNTVYMQMNSLKPEDTAVYYCAAAGQADDTLGYWGQGTQVTVSS | low polyreactivity
QVQLVESGGGLVQAGGSLRLSCAASGSTFRSYGMGWYRQAPRKERELVAGISVSGGRTSYADSVKGRFTISRDNAKNTVYLQMNSLKPEDTAVYYCAARRSKVGYHRDYYWGQGTQVTVSS | high polyreactivity
QVQLVESGGGLVQAGGSLRLSCAASGRTFRSYAMGWYRQAPGKERELVAAISDGGSTNYADSVKGRFTISRDNAKNTVYLQMNSLKPEDTAVYYCAAEIFFAVFRFYYWGQGTQVTVSS | low polyreactivity
QVQLVESGGALVQAGGSLRLSCAASGSIFDQYTMRWYRQAPGKDRELVAAIRFSGGSTSYADSVKGRFTISRDNAKNTVYLQMNSLKPDDTAVYYCNADSQPWRFGYWGQGTQVTVSS | low polyreactivity
QVQRVESGGGLVQAGGSLRLTSAVSGTTFYIYAMGWYRQAPGKEREFVAAIDFSGSSTYADSVKGRFTISRDNAKNTVYLQMNSLKPEDTEVYYCAAYQIFQYDGPYDYWGQGTQVTVSS | low polyreactivity
QVQLEESGGGLVQAGGSHRLICAASGSTFEYYAMGWYRQAPGKERELVAAINGIGGSTTYADSVKGRFTISRDTAKYTVYLQMNSLKPEDTAVYYCNADVARSKSQASAYDYWGQGTQVNVSS | low polyreactivity
QVPLVESGVGLVQAGGSLRLSCAASGSTFTIYAMGWYREAPGKERELVAAITWNGGSTYYADSVKGRFTISRDNAKKTVYLQMNSLKPEDTAVYYCADDYYWYWDLYDYWGQGTQVTVSS | high polyreactivity
QVQLVESGGGLVQAGGSLRLSCAASGIIFRPYAMGWYRQAPGKERELVAAITWSVTSTYYADSVKGRFTISRDNAKNTVYLQMNSLKPEDTAVYYCAATCSYGVSWYEYWGQGTQVTVSS | high polyreactivity
QVQLVESGGGLVQAGGSLRLSCAASGSTFLWYTIGWYRQAPGKERELVADISSGGTTYYADSVKGRFTISPDNAKNTVYFQMNSLKPEDTAVYFCAKTRWPYDRWKYAFGYWGQGTQVTVSS | high polyreactivity
QVQLVESGGRLVQAGGRLRLSCAASGRTILLYAMGRYRQAPGKESELVPAIRSSTVSTYYADSVKGRFTISRDNAKNTVYLQMYSLKPEDTAVYYCAASRPKYGPSGVRYNYWGQGTQVTVSS | high polyreactivity
QVQLVDSGGGLVQAGGSLRLSCAASGIISIVYAMGWYRQAPGKERELVAAISSGGSTYYADSVKGRFTISRDNAKNTVYLQMNRLKPEDTAVYYCATAYRYPPNAYFQRMDSWGQGTQVTVSS | high polyreactivity
